Reference: the RNAGym collection of RNA variant scans (doi:10.1073/pnas.2313332121)

B1: TPR t1 (parent)
chain: GACCAAUCUGCCCUCAGAGCUCGAGAACAUCUUCGGAUGCAGAGGAGGCAGGCUUCGGUGGCGCGAUAGCGCCAACGUCCUCAACCUCCAAUGCAUCCCACCACAUGAUGAUGCCUGAAGAGCCUUGGUUUUUUG

Variants of: B1
Experiment: polymerase ribozyme fitness, log enrichment relative to wild type (log ratio); higher = more active; in vitro selection for triplet polymerase activity
Procedure, shortened: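 PCR was used to build mutant libraries for each subunit of a heterodimeric triplet polymerase ribozyme, which were then transcribed. A single in vitro selection round, in triplicate, used a frozen incubation at −7 °C and recovered extended constructs by gel excision, streptavidin beads and RT-PCR. Fitness is the logarithm of genotype enrichment relative to wild-type enrichment, averaged over replicates with inverse-variance weights. The logarithm is base 2, and after Illumina sequencing only genotypes with ≥10 input reads and ≥1 read per output were kept.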

| Variant | polymerase ribozyme fitness (log ratio) |
| --- | --- |
| C40G G69A A84C | -3.83 |
| C40G G69C | -2.54 |
| C40G G69U U92A G93A C94G A119G | -0.914 |
| C40G G71A | -1.91 |
| C40G G113A G122C | -1.81 |
| C40G G120A | 0.215 |
| C40G G120U | -0.437 |
| C40G U55G | -0.761 |
| C40G U59A C86U A100U | -4.58 |
| C40G U78C | -1.4 |
| C40G U81C | -1.19 |
| C40G U109A C114G U132A | -4.05 |
| C40G U132A | -0.821 |
| C40U | -0.543 |
| C40U A41C C56A C73U C114A | -3.67 |
| C40U A41U G60A | -2.3 |
| C40U A43G G61A G71U C124A | -4.58 |
| C40U A43U G57U G63C | -3.07 |
| C40U A46U G47A C53G A66C G117C | -7.17 |
| C40U A50G | -0.548 |
| C40U A50U | -4.47 |
| C40U A50U G51A C82A C85U | -4.25 |
| C40U A68U A74U C97U C102A A111G | -7.15 |
| C40U A74U A111C | -1.01 |

| Variant | polymerase ribozyme fitness (log ratio) |
| --- | --- |
| C40U A83G U112G | -1.69 |
| C40U A91C C97U C115U | -3.9 |
| C40U A95G | -1.37 |
| C40U A105C | -3.68 |
| C40U A119G U126G G127U | -0.212 |
| C40U A121U | 1.68 |
| C40U C49A C94U G117C | -5.09 |
| C40U C49A G61U C82G U131G | -0.822 |
| C40U C53U | -0.572 |
| C40U C53U G61C U131A | -0.765 |
| C40U C56G | -1.16 |
| C40U C56U A74U U78C C89G | -2.81 |
| C40U C56U A90U | -2.08 |
| C40U C62G | -3.29 |
| C40U C62G G127C | -3.27 |
| C40U C62U A95G | -0.773 |
| C40U C64U | -0.45 |
| C40U C64U C82G | -1.35 |
| C40U C70A | -1.93 |
| C40U C70U A84G | -2.34 |
| C40U C72U C98G G127U U131C | -6.34 |
| C40U C76U G117A | -2.16 |
| C40U C80U C99U C124U | -2.92 |
| C40U C82G | -1.54 |

| Variant | polymerase ribozyme fitness (log ratio) |
| --- | --- |
| C40U C86G | -1.6 |
| C40U C88A C114G | -2.99 |
| C40U C88U | -0.588 |
| C40U C104A | -2.08 |
| C40U C104A A119G | -1.84 |
| C40U C104U | -0.655 |
| C40U C115A G128A | -2.68 |
| C40U G42A C56A C76G G93U C114G | -4.34 |
| C40U G44A U125A | -1.32 |
| C40U G45U G63U U78C | -4.36 |
| C40U G47U C53U | -3.37 |
| C40U G48A C53A G61A U132A | -0.596 |
| C40U G48C | -1.59 |
| C40U G48C C82A | -1.94 |
| C40U G48U C82A C88A | -3.31 |
| C40U G51A G71C | -4.85 |
| C40U G51U | -3.7 |
| C40U G52A | -0.72 |
| C40U G57C A90C A103U U112G | -6.33 |
| C40U G60C | -0.857 |
| C40U G60U G110A | -1.76 |
| C40U G60U U131G | -0.956 |
| C40U G61C C88A | -2.87 |
| C40U G61U C86G | -2.87 |

| Variant | polymerase ribozyme fitness (log ratio) |
| --- | --- |
| C40U G71A U78G C123G U125C | -1.36 |
| C40U G71U U92A | -5.4 |
| C40U G93A | -1.09 |
| C40U G107C U109A | -6.59 |
| C40U G110U G135C | -2.95 |
| C40U G113A | -1.41 |
| C40U G117A | -1.87 |
| C40U G120C | 0.116 |
| C40U G122A | -1.22 |
| C40U U54A | -0.773 |
| C40U U59A U116A | -4.02 |
| C40U U109A G120C | -5.74 |
| C40U U116G | -2.61 |
| A41C A43C C72G C88A G93U C99A C102A C124A | -7.15 |
| A41C A46G U109A | -7.53 |
| A41C A91U A95C G113A | -3.38 |
| A41C C53G C85A A111U U112A U116C | -6.24 |
| A41C C56U C94A | -3 |
| A41C C64A A90G | -4.74 |
| A41C C70A U78C G128U U131C | -4.08 |
| A41C C70U C85U | -2.92 |
| A41C C70U G71C G117U C123A G128A | -6.8 |
| A41C C72A | -2.08 |
| A41C C72A U92G G120U U129C | -2.57 |

| Variant | polymerase ribozyme fitness (log ratio) |
| --- | --- |
| A41C C80A G107A G117U U129C | -7.66 |
| A41C C80G A121G U132A | -4.51 |
| A41C G45U C124A U126G | -1.66 |
| A41C G52A C82G C97U C101G A118U A121U | -2.61 |
| A41C G61C G93C | -4.23 |
| A41C G69U | -0.161 |
| A41C G69U U112C | 0.865 |
| A41C G71U | -0.988 |
| A41C G93A U112A | -1.27 |
| A41C G107C G117A | -6.25 |
| A41C G113A C124G | -1.49 |
| A41C G113C C124U | -3.22 |
| A41C G117C | -4.47 |
| A41C G117C A121C | -6.19 |
| A41C U106G C114U U130A | -4.41 |
| A41G A66G | -1.87 |
| A41G A90G | 0.631 |
| A41G C53A C64A A121G | -4.97 |
| A41G C53U G77A A108G | -2.63 |
| A41G C56A C102U | -3.9 |
| A41G C64A | -7.34 |
| A41G C70U U78C | -0.997 |
| A41G C104U | 0.737 |
| A41G G42U A75G A90U G128C U129A | -4.64 |

| Variant | polymerase ribozyme fitness (log ratio) |
| --- | --- |
| A41G G44A C62A U131G | -3.51 |
| A41G G44C G63A C102U C124A G128A | -4.69 |
| A41G G45U C56G | -0.725 |
| A41G G48U C62A C80U A91U C98U C123A | -7.74 |
| A41G G57A G77U C123A G128C | -2.56 |
| A41G G60A | -0.408 |
| A41G G61U A84G U96G C97U | -6.44 |
| A41G G61U G120C | 0.573 |
| A41G G61U U96A A105U U133C | -6.14 |
| A41G G63U G117C | -6.01 |
| A41G G69U G93C | -0.214 |
| A41G U54C G61C C104A | -6.52 |
| A41G U55A U130G | -0.934 |
| A41G U55G A75G U87A A108G | -4.14 |
| A41U A43C C79U C80U C124U | -4.76 |
| A41U A43G C94U | -3.17 |
| A41U A46U | -2.26 |
| A41U A46U G63U C115A G120U C123G | -3.28 |
| A41U A50C | -1.53 |
| A41U A50G G77A | -0.647 |
| A41U A66C C70U C97U | -5.29 |
| A41U A90C | -1.41 |
| A41U A91C U92C | -2.44 |
| A41U A111G | -1.26 |

| Variant | polymerase ribozyme fitness (log ratio) |
| --- | --- |
| A41U C49U C88A A121U | -0.675 |
| A41U C53A C114G | -1.85 |
| A41U C53A G58A | -1.32 |
| A41U C53G G63C C72U G77A | -3.7 |
| A41U C53U C72A C86A C114U U129G | -5.65 |
| A41U C56A U87C | -1.49 |
| A41U C70A C89G C97A A105C G110U | -5.8 |
| A41U C72G U78A A83U | -2.44 |
| A41U C76A | -1.89 |
| A41U C79U | -0.893 |
| A41U C80U | -1.77 |
| A41U C80U C123A | -1.59 |
| A41U C94U A111G G128U | -4.31 |
| A41U C101G | -3.73 |
| A41U C102U | -3.6 |
| A41U C104U | -0.832 |
| A41U G42C C114A C124A | -3.31 |
| A41U G42U G93C | -3.1 |
| A41U G45A C56A G113A | -3.04 |
| A41U G45A C88A C115A U131A | -3.64 |
| A41U G45C | -2.41 |
| A41U G45U U78C | -2.76 |
| A41U G47A G110U | -5.48 |
